Entries after “also recorded” stand apart in the source; their conditions may differ.
Assays:
histone H4 (H4K5, H4K12) [1] = conditions: no ref printed in the sentence; cited from earlier work
histone H4 (H4K5, H4K12) [2] = conditions: cited from earlier work; for enhancement of enzymatic activity of Hat1p: by facilitating H4 association with Hat1p; for enhancement of enzymatic activity of Hat1p / acetylation site specificity on H4 (literature): ref Parthun et al. 1996; for acetylation site specificity on H4 (literature): in vitro, complex purified from yeast extracts or recombinant yeast Hat1p
hat1Δ yeast = test: DNA damage sensitivity assay; format: cell-based; conditions: synthetic medium in the absence or presence of methyl methane sulfonate (MMS); H3K9,14R allele as sole H3; Supplemental Fig. S4
[3] = system: histone H4 in nucleosomes; conditions: ref Kleff et al. 1995; Parthun et al. 1996; cited from earlier work

Row | Molecule | enhancement of enzymatic activity of Hat1p (histone H4 (H4K5, H4K12) [2]) | acetylation site specificity on H4 (literature) (histone H4 (H4K5, H4K12) [2]) | other results
1 | recombinant human: recombinant human Hat1 (protein, UniProt O14929 2-419, looked up) Histone acetyltransferase …: AGFGAMEKFLVEYKSAVEKKLAEYKCNTNTAIELKLVRFPEDLENDIRTFFPEYTHQLFGDDETAFGYKGLKILLYYIAGSLSTMFRVEYASKVDENFDCVEADDVEGKIRQIIPPGFCTNTNDFLSLLEKEVDFKPFGTLLHTYSVLSPTGGENFTFQIYKADMTCRGFREYHERLQTFLMWFIETASFIDVDDERWHYFLVFEKYNKDGATLFATVGYMTVYNYYVYPDKTRPRVSQMLILTPFQGQGHGAQLLETVHRYYTEFPTVLDITAEDPSKSYVKLRDFVLVKLCQDLPCFSREKLMQGFNEDMVIEAQQKFKINKQHARRVYEILRLLVTDMSDAEQYRSYRLDIKRRLISPYKKKQRDLAKMRKCLRPEELTNQMNQIEISMQHEQLEESFQELVEDYRRVIERLAQE | – | – | acetylation of H4K5 and H4K12 (recombinant human Hat1, literature) (histone H4 (H4K5, H4K12) [1]): can acetylate both H4K5 and H4K12
2 | RbAp46: human homolog of Hat2p, retinoblastoma-binding protein (protein, UniProt Q16576 2-425, looked up) Histone-binding protein RBBP7: ASKEMFEDTVEERVINEEYKIWKKNTPFLYDLVMTHALQWPSLTVQWLPEVTKPEGKDYALHWLVLGTHTSDEQNHLVVARVHIPNDDAQFDASHCDSDKGEFGGFGSVTGKIECEIKINHEGEVNRARYMPQNPHIIATKTPSSDVLVFDYTKHPAKPDPSGECNPDLRLRGHQKEGYGLSWNSNLSGHLLSASDDHTVCLWDINAGPKEGKIVDAKAIFTGHSAVVEDVAWHLLHESLFGSVADDQKLMIWDTRSNTTSKPSHLVDAHTAEVNCLSFNPYSEFILATGSADKTVALWDLRNLKLKLHTFESHKDEIFQVHWSPHNETILASSGTDRRLNVWDLSKIGEEQSAEDAEDGPPELLFIHGGHTAKISDFSWNPNEPWVICSVSEDNIMQIWQMAENIYNDEESDVTTSELEGQGS | significantly enhanced the enzymatic activity of Hat1p | – | –
3 | Hat2p: WD40 repeat protein, binding partner of Hat1p (protein, left off: 6xHis, N-terminal, kept) MENQEKPLSVDEEYDLWKSNVPLMYDFVSETRLTWPSLTVQWLPTPVQELDGGFIKQELIIGTHTSGEEENYLKFAEINLPKEILSNEDPQEEAGEEYQSSLPAPRSNIRITAKYEHEEEITRARYMPQDPNIVATINGQGTVFLYSRSEGLQSTLKFHKDNGYALSFSTLVKGRLLSGSDDHTVALWEVGSGGDPTKPVRTWNDLHSDIINDNKWHNFNKDLFGTVSEDSLLKINDVRANNTTIDTVKCPQPFNTLAFSHHSSNLLAAAGMDSYVYLYDLRNMKEPLHHMSGHEDAVNNLEFSTHVDGVVVSSGSDNRLMMWDLKQIGAEQTPDDAEDGVPELIMVHAGHRSSVNDFDLNPQIPWLVASAEEENILQVWKCSHSLPIVGGPPKVNKDIIS | significantly enhanced the enzymatic activity of Hat1p | – | –
4 | W197E (protein, left off: GST (from the vector pGEX6p-1), end not stated, cleaved) MSANDFKPETWTSSANEALRVSIVGENAVQFSPLFTYPIYGDSEKIYGYKDLIIHLAFDSVTFKPYVNVKYSAKLGDDNIVDVEKKLLSFLPKDDVIVRDEAKWVDCFAEERKTHNLSDVFEKVSEYSLNGEEFVVYKSSLVDDFARRMHRRVQIFSLLFIEAANYIDETDPSWQIYWLLNKKTKELIGFVTTYKYEHYLGAKSFDEDIDKKFRAKISQFLIFPPYQNKGHGSCLYEAIIQSWLEDKSITEITVEDPNEAFDDLRDRNDIQRLRKLGYDAVFQKHSDLSDEFLESSRKSLKLEERQFNRLVEMLLLLNNS | – | – | complementation of DNA damage sensitivity in hat1Δ yeast (hat1Δ yeast): able to complement the DNA damage sensitivity in the hat1Δ yeast
5 | Hat1p/Hat2p complex: yeast histone acetyltransferase complex Hat1p/Hat2p (protein, left off: 6xHis, N-terminal, state not stated) chain 1: MSANDFKPETWTSSANEALRVSIVGENAVQFSPLFTYPIYGDSEKIYGYKDLIIHLAFDSVTFKPYVNVKYSAKLGDDNIVDVEKKLLSFLPKDDVIVRDEAKWVDCFAEERKTHNLSDVFEKVSEYSLNGEEFVVYKSSLVDDFARRMHRRVQIFSLLFIEAANYIDETDPSWQIYWLLNKKTKELIGFVTTYKYWHYLGAKSFDEDIDKKFRAKISQFLIFPPYQNKGHGSCLYEAIIQSWLEDKSITEITVEDPNEAFDDLRDRNDIQRLRKLGYDAVFQKHSDLSDEFLESSRKSLKLEERQFNRLVEMLLLLNNS chain 2: MENQEKPLSVDEEYDLWKSNVPLMYDFVSETRLTWPSLTVQWLPTPVQELDGGFIKQELIIGTHTSGEEENYLKFAEINLPKEILSNEDPQEEAGEEYQSSLPAPRSNIRITAKYEHEEEITRARYMPQDPNIVATINGQGTVFLYSRSEGLQSTLKFHKDNGYALSFSTLVKGRLLSGSDDHTVALWEVGSGGDPTKPVRTWNDLHSDIINDNKWHNFNKDLFGTVSEDSLLKINDVRANNTTIDTVKCPQPFNTLAFSHHSSNLLAAAGMDSYVYLYDLRNMKEPLHHMSGHEDAVNNLEFSTHVDGVVVSSGSDNRLMMWDLKQIGAEQTPDDAEDGVPELIMVHAGHRSSVNDFDLNPQIPWLVASAEEENILQVWKCSHSLPIVGGPPKVNKDIIS | – | specifically acetylated H4K12 residue; also recorded: highly specific for H4K12 | –
6 | Hat1p: yeast Hat1p (1–320), type B histone acetyltransferase (protein) MSANDFKPETWTSSANEALRVSIVGENAVQFSPLFTYPIYGDSEKIYGYKDLIIHLAFDSVTFKPYVNVKYSAKLGDDNIVDVEKKLLSFLPKDDVIVRDEAKWVDCFAEERKTHNLSDVFEKVSEYSLNGEEFVVYKSSLVDDFARRMHRRVQIFSLLFIEAANYIDETDPSWQIYWLLNKKTKELIGFVTTYKYWHYLGAKSFDEDIDKKFRAKISQFLIFPPYQNKGHGSCLYEAIIQSWLEDKSITEITVEDPNEAFDDLRDRNDIQRLRKLGYDAVFQKHSDLSDEFLESSRKSLKLEERQFNRLVEMLLLLNNS | – | not only able to acetylate H4K12 but also exhibited low activity to H4K5; also recorded: acetylated both H4K5 and H4K12 in vitro | acetylation of histone H4 in nucleosomes [3]: cannot acetylate histone H4 in nucleosomes; acetylation of H4K5 and H4K12 (recombinant yeast Hat1, literature) (histone H4 (H4K5, H4K12) [2]; recombinant yeast Hat1, no ref printed in the sentence): can acetylate both H4K5 and H4K12

— paper PMC4052767 (Genes & Development, 2014)
